Data from patent US20170226215A1 (SORRENTO THERAPEUTICS, published 2017).
Residue numbers refer to the chain shown, from its start.

B1: anti-CD137 antibody MB3 (antibody, V domains shown)
VH: QMQLVQSGAEVKKPGASVKVSCKASGYQMRGYYMHWVRQAPGQGLEWMGWINPNSGGTNYAQKFQGRVTITRDTSASTAYMELSSLRSEDTAVYYCAREGEAVGLDLDYWGQGTLVTVSS
VL: SYELTQPPSVSVAPGKTARITCGGNNIGSKSVHWYQQKPGQAPVLVIYYDSDRPSGIPERFSGSNSGNTATLTISRVEAGDEADYYCQVWDSSSVVFGGGTQLTVL
notes: IgG class, variant of D6
B2: anti-CD137 antibody MB12 (antibody, V domains shown)
VH: B1 VH with Q28S, M29L, R30E
VL: B1 VL
notes: IgG class, variant of D6
B3: anti-CD137 antibody MSC8 (antibody, V domains shown)
VH: B1 VH with Q28N, M29F, R30G, I51V, N54K
VL: B1 VL
notes: IgG class, variant of D6

target: T1, recombinant human CD137/Fc (human, UniProt Q07011 24-186); assay: ELISA, plate coated with recombinant human CD137/Fc at 2 µg/mL, antibody at about 1 µg/mL (single concentration), HRP anti-human lambda, OD 450 nm
T1 construct: Coated on the ELISA plate at 2 µg/mL; not shown: Fc part
Protocol: A Maxisorp plate was coated with recombinant human CD137/Fc or mouse CD137/Fc at 2 μg/mL at 4° C., overnight. The plate was blocked for 1 hour at room temperature, washed 3 times with PBS-Tween (PBST), then anti-CD137 antibodies (˜1 μg/mL) diluted in casein were added and incubated for 30 min with shaking. The plate was washed 3 times with PBST, horseradish peroxidase (HRP)-conjugated mouse anti-human Lambda (1:1000 in casein) was added, then 3,3′,5,5′-Tetramethylbenzidine (TMB) was added as substrate and developed about 5 min. 2M H₂SO₄ was used to stop the reaction and the OD was read at 450 nm.

Binder | binding result
B1 | binds
B2 | binds
B3 | binds
